Substitutions are numbered along the chain they refer to.
B1: 281 (protein)
chain: LDNGLARTPTMGWLHWERFMCNLDCQEEPDSCISEKLFMEMAERMVSEGWKDAGYEYLCIDDCWMAPQRDSEGRLQADPQRFPHGIRQLANYVHSKGLKLGIYADVGNKTCAGFPGSFGYYDIDAQTFADWGVDLLKFDGCYCDSLENLADGYKHMSLALNRTGRSIVYSCEWPLYMWPFQKPNYTEIRQYCNHWRNFADIDDSWASVKSILDWTSFNQEKIVDVAGPGGWNDPDMLVIGNFGLSWNQQVTQMALWAIMAAPLFMSNDLRHISPQAKALLQDKDVIAINQDPLGKQGYQLRQGDNFEVWERPLSGLAWAVAVINRQEIGGPRSYTIAVASLGDGVACNPACFITQLLPVKRKLGLYEWTSRLKSHINPTGTVLLQLENTMQMSLKDLL
modifications: Synthetic Polypeptide sequence of Variant No. 281 of mature Human GLA
B2: 278 (protein)
chain: LDNGLARTPTMGWLHWERFMCNLDCQEEPDSCISEKLFMEMAERMVSEGWKDAGYEYLCIDDCWMAPQRDSEGRLQADPQRFPHGIRQLANYVHSKGLKLGIYADVGNKTCAGFPGSFGYYDIDAQTFADWGVDLLKFDGCYCDSLENLADGYKHMSLALNRTGRSIVYSCEWPLYMWPFQKPNYTEIRQYCNHWRNFADIDDSWASIKSILDWTSRNQERIVDVAGPGGWNDPDMLVIGNFGLSWDQQVTQMALWAIMAAPLFMSNDLRHISPQAKALLQDKDVIAINQDPLGKQGYQLRQGDNFEVWERPLSGDAWAVAMINRQEIGGPRSYTIAVASLGKGVACNPGCFITQLLPVKRKLGFYDWDSRLRSHINPTGTVLLQLENTMQMSLKDLL
modifications: Synthetic Polypeptide sequence of Variant No. 278 of mature Human GLA
B3: 289 (protein)
chain: B2 chain with K96I, D247N, Q302K, D316L, D367E, D369T
modifications: Synthetic Polypeptide sequence of Variant No. 289 of mature Human GLA
B4: 282 (protein)
chain: B2 chain with R217F, D316L, A337P, G350A, D367E, D369T
modifications: Synthetic Polypeptide sequence of Variant No. 282 of mature Human GLA
B5: 290 (protein)
chain: B2 chain with K96I, R217F, A337P
modifications: Synthetic Polypeptide sequence of Variant No. 290 of mature Human GLA
B6: 280 (protein)
chain: B2 chain with D247N, Q302K, D316L, G350A
modifications: Synthetic Polypeptide sequence of Variant No. 280 of mature Human GLA
B7: 288 (protein)
chain: B2 chain with K96I, Q302K, D316L, A337P
modifications: Synthetic Polypeptide sequence of Variant No. 288 of mature Human GLA
B8: 279 (protein)
chain: B2 chain with Q302K, D316L, D367E, D369T
modifications: Synthetic Polypeptide sequence of Variant No. 279 of mature Human GLA
B9: 286 (protein)
chain: B2 chain with K96I, D316L, G350A, D367E, D369T
modifications: Synthetic Polypeptide sequence of Variant No. 286 of mature Human GLA
B10: 285 (protein)
chain: B2 chain with K96I, R217F, D247N, D316L, G350A, D367E, D369T
modifications: Synthetic Polypeptide sequence of Variant No. 285 of mature Human GLA
B11: 284 (protein)
chain: B1 chain with V208I, K221T, N247D, V322I, K373R, I376V
modifications: Synthetic Polypeptide sequence of Variant No. 284 of mature Human GLA
B12: 287 (protein)
chain: B2 chain with Q302K, D316L, A337P, D367E, D369T
modifications: Synthetic Polypeptide sequence of Variant No. 287 of mature Human GLA
B13: 283 (protein)
chain: B2 chain with R217F, Q302K, D316L, A337P
modifications: Synthetic Polypeptide sequence of Variant No. 283 of mature Human GLA

Experiment: HTP-analysis of yeast culture supernatants, no challenge (MUGal hydrolysis)
Type: biochemical
Conditions: activity of the variant/activity of Rd2BB (SEQ ID NO: 10), yeast culture supernatant
Outline: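 GLA variants expressed in yeast INVSc1, secreted into SD-Ura broth over 66-84 h at 30° C; clarified supernatants tested without challenge. Supernatant mixed with McIlvaine buffer pH 4.8 and 2 mM MUGal (citrate/KCl, pH 4.6), 37° C for 30-180 min, carbonate-quenched, fluorescence Ex 355/Em 448 nm.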

Row | Molecule | Relative Activity of GLA Variants After No Challenge (NC)
1 | B1 | + (+ = 0.5 to 1.5 relative activity over Rd2BB (SEQ ID NO: 10))
2 | B2 | +++ (+++ = >2.5 relative activity over Rd2BB (SEQ ID NO: 10))
3 | B3 | + (+ = 0.5 to 1.5 relative activity over Rd2BB (SEQ ID NO: 10))
4 | B4 | + (+ = 0.5 to 1.5 relative activity over Rd2BB (SEQ ID NO: 10))
5 | B5 | +++ (+++ = >2.5 relative activity over Rd2BB (SEQ ID NO: 10))
6 | B6 | + (+ = 0.5 to 1.5 relative activity over Rd2BB (SEQ ID NO: 10))
7 | B7 | +++ (+++ = >2.5 relative activity over Rd2BB (SEQ ID NO: 10))
8 | B8 | ++ (++ = 1.5 to 2.5 relative activity over Rd2BB (SEQ ID NO: 10))
9 | B9 | + (+ = 0.5 to 1.5 relative activity over Rd2BB (SEQ ID NO: 10))
10 | B10 | + (+ = 0.5 to 1.5 relative activity over Rd2BB (SEQ ID NO: 10))
11 | B11 | +++ (+++ = >2.5 relative activity over Rd2BB (SEQ ID NO: 10))
12 | B12 | +++ (+++ = >2.5 relative activity over Rd2BB (SEQ ID NO: 10))
13 | B13 | +++ (+++ = >2.5 relative activity over Rd2BB (SEQ ID NO: 10))

Experiment: HTP-analysis of supernatants pretreated with acid (MUGal hydrolysis)
Type: biochemical
Conditions: challenge at pH 4.2; activity of the variant/activity of Rd2BB (SEQ ID NO: 10); yeast culture supernatant
Outline: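 GLA variants were secreted from INVSc1 yeast grown 66-84 h at 30° C. in SD-Ura with 2% glucose; supernatants were mixed with McIlvaine buffer pH 3.3-4.3 and held at 37° C. for 1-3 h. Residual activity on MUGal at pH 4.8 was then measured by fluorescence.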

Row | Molecule | Relative Activity of GLA Variants After Challenge at pH 4.2
14 | B1 | + (+ = 0.5 to 1.5 relative activity over Rd2BB (SEQ ID NO: 10))
15 | B2 | +++ (+++ = >2.5 relative activity over Rd2BB (SEQ ID NO: 10))
16 | B3 | ++ (++ = 1.5 to 2.5 relative activity over Rd2BB (SEQ ID NO: 10))
17 | B4 | + (+ = 0.5 to 1.5 relative activity over Rd2BB (SEQ ID NO: 10))
18 | B5 | +++ (+++ = >2.5 relative activity over Rd2BB (SEQ ID NO: 10))
19 | B6 | + (+ = 0.5 to 1.5 relative activity over Rd2BB (SEQ ID NO: 10))
20 | B7 | +++ (+++ = >2.5 relative activity over Rd2BB (SEQ ID NO: 10))
21 | B8 | +++ (+++ = >2.5 relative activity over Rd2BB (SEQ ID NO: 10))
22 | B9 | + (+ = 0.5 to 1.5 relative activity over Rd2BB (SEQ ID NO: 10))
23 | B10 | + (+ = 0.5 to 1.5 relative activity over Rd2BB (SEQ ID NO: 10))
24 | B11 | +++ (+++ = >2.5 relative activity over Rd2BB (SEQ ID NO: 10))
25 | B12 | +++ (+++ = >2.5 relative activity over Rd2BB (SEQ ID NO: 10))
26 | B13 | +++ (+++ = >2.5 relative activity over Rd2BB (SEQ ID NO: 10))

Experiment: HTP-analysis of supernatants pretreated with base (MUGal hydrolysis)
Type: biochemical
Conditions: challenge at pH 7.6; activity of the variant/activity of Rd2BB (SEQ ID NO: 10); yeast culture supernatant
Outline: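 Fluorescence of released 4-MU (Ex 355 nm, Em 448 nm) after carbonate quench reports MUGal hydrolysis by GLA variants secreted from INVSc1 yeast. Before the acidic (pH 4.3-4.8) 30-180 min reaction at 37° C, supernatants had been pre-incubated at pH 7.0-9.7 for 1-18 h at 37° C.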

Row | Molecule | Relative Activity of GLA Variants After Challenge at pH 7.6
27 | B1 | + (+ = 0.5 to 1.5 relative activity over Rd2BB (SEQ ID NO: 10))
28 | B2 | +++ (+++ = >2.5 relative activity over Rd2BB (SEQ ID NO: 10))
29 | B3 | ++ (++ = 1.5 to 2.5 relative activity over Rd2BB (SEQ ID NO: 10))
30 | B4 | + (+ = 0.5 to 1.5 relative activity over Rd2BB (SEQ ID NO: 10))
31 | B5 | +++ (+++ = >2.5 relative activity over Rd2BB (SEQ ID NO: 10))
32 | B6 | + (+ = 0.5 to 1.5 relative activity over Rd2BB (SEQ ID NO: 10))
33 | B7 | +++ (+++ = >2.5 relative activity over Rd2BB (SEQ ID NO: 10))
34 | B8 | +++ (+++ = >2.5 relative activity over Rd2BB (SEQ ID NO: 10))
35 | B9 | ++ (++ = 1.5 to 2.5 relative activity over Rd2BB (SEQ ID NO: 10))
36 | B10 | ++ (++ = 1.5 to 2.5 relative activity over Rd2BB (SEQ ID NO: 10))
37 | B11 | +++ (+++ = >2.5 relative activity over Rd2BB (SEQ ID NO: 10))
38 | B12 | +++ (+++ = >2.5 relative activity over Rd2BB (SEQ ID NO: 10))
39 | B13 | +++ (+++ = >2.5 relative activity over Rd2BB (SEQ ID NO: 10))

Experiment: HTP-analysis of supernatants pretreated with bovine serum (MUGal hydrolysis)
Type: biochemical
Conditions: activity of the variant/activity of Rd2BB (SEQ ID NO: 10), yeast culture supernatant
Outline: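 Yeast INVSc1 culture supernatants containing secreted GLA variants were mixed with bovine serum (20:80) and held 1 h at 37° C. Serum-treated samples then reacted with MUGal (4 mM stock) in citrate/McIlvaine buffer (pH 4.3/4.8) for 180 min at 37° C., were quenched with sodium carbonate, and read by fluorescence (Ex 355, Em 448 nm).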

Row | Molecule | Relative Activity of GLA Variants After Challenge with Serum
40 | B1 | + (+ = 0.5 to 1.5 relative activity over Rd2BB (SEQ ID NO: 10))
41 | B2 | +++ (+++ = >2.5 relative activity over Rd2BB (SEQ ID NO: 10))
42 | B3 | ++ (++ = 1.5 to 2.5 relative activity over Rd2BB (SEQ ID NO: 10))
43 | B4 | + (+ = 0.5 to 1.5 relative activity over Rd2BB (SEQ ID NO: 10))
44 | B5 | +++ (+++ = >2.5 relative activity over Rd2BB (SEQ ID NO: 10))
45 | B6 | + (+ = 0.5 to 1.5 relative activity over Rd2BB (SEQ ID NO: 10))
46 | B7 | +++ (+++ = >2.5 relative activity over Rd2BB (SEQ ID NO: 10))
47 | B8 | +++ (+++ = >2.5 relative activity over Rd2BB (SEQ ID NO: 10))
48 | B9 | + (+ = 0.5 to 1.5 relative activity over Rd2BB (SEQ ID NO: 10))
49 | B10 | + (+ = 0.5 to 1.5 relative activity over Rd2BB (SEQ ID NO: 10))
50 | B11 | +++ (+++ = >2.5 relative activity over Rd2BB (SEQ ID NO: 10))
51 | B12 | ++ (++ = 1.5 to 2.5 relative activity over Rd2BB (SEQ ID NO: 10))
52 | B13 | +++ (+++ = >2.5 relative activity over Rd2BB (SEQ ID NO: 10))

From US11278600B2, “Human alpha-galactosidase variants” (Codexis, Inc., priority 2014, dated 2022)
